Test results from patent US20190142971A1, “FORMULATION AND DELIVERY OF MODIFIED NUCLEOSIDE, NUCLEOTIDE, AND NUCLEIC ACID COMPOSITIONS” (ModernaTX, Inc., priority 2013, published 2019).

Legend:
Format in all cases: in vivo
[1] = tested on: mice; assay: Example 19A: LNP IV in mice, serum EPO/G-CSF ELISA (Table 36)
Experimental: Formulations, listed in Table 33, were characterized by particle size, zeta potential, and encapsulation.
LNP formulations, shown in Table 33 (above), were administered to mice (n=4) intravenously (IV) at a single modified mRNA dose 0.05 mg/kg or 0.005 mg/kg. There was also 3 control groups of mice (n=4) that were untreated. The mice were bled at 2 hours, 8 hours, 24 hours, 48 hours and 72 hours after they were administered with G-CSF or EPO modified mRNA formulations to determine the protein expression. Protein expression of G-CSF and EPO were determined using ELISA.

[2] = tested on: non-human primates (cynomolgus monkey); assay: Example 22: LNP IV in non-human primates, serum G-CSF/EPO ELISA (Tables 38, 39)
Experimental: (§1) LNP formulations, shown in Table 33 (above), were administered to non-human primates (NHP) (cynomolgus monkey) (n=2) as intravenous injection (IV). The NHP were administered a single modified mRNA IV dose of 0.5 mg/kg, 0.05 mg/kg or 0.005 mg/kg of G-CSF or EPO in a dose volume of 0.5 mL/kg. The NHPs were bled before dosing with the modified mRNA LNP formulations to determine protein expression in the serum and a baseline complete blood count. After administration with the G-CSF modified mRNA formulation the NHP were bled at 8, 24, 48 and 72 hours to determined protein expression. After administration with the EPO modified mRNA formulation the NHP were bled at 8, 24, 48, 72 hours and 7 days to determined protein expression.
Samples collected from the NHPs after they were administered with G-CSF or EPO modified mRNA formulations were analyzed by ELISA to determine protein expression. Neutrophil and reticulocyte count was also determined pre-dose, 24 hours, 3 days, 7 days, 14 days and 18 days after administration of the modified G-CSF or EPO formulation.

[3] = tested on: non-human primates (cynomolgus monkey); assay: Example 22: NHP cytokine interferon-alpha (Table 47)
Experimental: as §1

[4] = tested on: Sprague-Dawley rats; assay: Example 34: EPO mRNA in buffer IM in rats, serum EPO (Table 59); settings: 13 hours post injection
[5] = tested on: C57/BL6 mice; assay: Example 34: EPO mRNA in buffer IM or SC in mice, serum EPO (Table 60); settings: 13 hours post injection
Experimental: Mice were intramuscularly or subcutaneously injected with 50 μl of the modified human EPO mRNA (h-EPO), modified luciferase mRNA (Luc) or the formulation buffer (F.Buffer) as described in the dosing chart Table 60. 13 hours post injection blood was collected and serum was analyzed to determine the amount human EPO for each mouse or rat.

[6] = tested on: mice; assay: Example 42B: EPO mRNA dose response IM in mice (Table 68)
Experimental: The mice were bled at 13 hours after the injection to determine the concentration of the human polypeptide in serum in pg/mL.

B1: EPO: modified mRNA encoding human erythropoietin, SEQ ID NO: 7, Cap1, fully modified with 5-methylcytosine and pseudouridine; LNP NPA-060-1 in Examples 17-22 (nucleic acid)
chain: GGGAAAUAAGAGAGAAAAGAAGAGUAAGAAGAAAUAUAAGAGCCACCAUGGGAGUGCACGAGUGUCCCGCGUGGUUGUGGUUGCUGCUGUCGCUCUUGAGCCUCCCACUGGGACUGCCUGUGCUGGGGGCACCACCCAGAUUGAUCUGCGACUCACGGGUACUUGAGAGGUACCUUCUUGAAGCCAAAGAAGCCGAAAACAUCACAACCGGAUGCGCCGAGCACUGCUCCCUCAAUGAGAACAUUACUGUACCGGAUACAAAGGUCAAUUUCUAUGCAUGGAAGAGAAUGGAAGUAGGACAGCAGGCCGUCGAAGUGUGGCAGGGGCUCGCGCUUUUGUCGGAGGCGGUGUUGCGGGGUCAGGCCCUCCUCGUCAACUCAUCACAGCCGUGGGAGCCCCUCCAACUUCAUGUCGAUAAAGCGGUGUCGGGGCUCCGCAGCUUGACGACGUUGCUUCGGGCUCUGGGCGCACAAAAGGAGGCUAUUUCGCCGCCUGACGCGGCCUCCGCGGCACCCCUCCGAACGAUCACCGCGGACACGUUUAGGAAGCUUUUUAGAGUGUACAGCAAUUUCCUCCGCGGAAAGCUGAAAUUGUAUACUGGUGAAGCGUGUAGGACAGGGGAUCGCUGAUAAGCUGCCUUCUGCGGGGCUUGCCUUCUGGCCAUGCCCUUCUUCUCUCCCUUGCACCUGUACCUCUUGGUCUUUGAAUAAAGCCUGAGUAGGAAG
modifications: Cap1, 5-methylcytosine, pseudouridine
[1]; 0.005 mg/kg, 2 hours
  EPO / G-CSF Serum Concentration: OSC
[1]; 0.005 mg/kg, 8 hours
  EPO / G-CSF Serum Concentration: 1,632.8 pg/ml
[1]; 0.005 mg/kg, 24 hours
  EPO / G-CSF Serum Concentration: 1,141.0 pg/ml
[1]; 0.005 mg/kg, 48 hours
  EPO / G-CSF Serum Concentration: 137.4 pg/mL
[1]; 0.005 mg/kg, 72 hours
  EPO / G-CSF Serum Concentration: 0 pg/mL
[1]; 0.05 mg/kg, 2 hours
  EPO / G-CSF Serum Concentration: 10,027.3 pg/ml
[1]; 0.05 mg/kg, 8 hours
  EPO / G-CSF Serum Concentration: 56,547.2 pg/ml
[1]; 0.05 mg/kg, 24 hours
  EPO / G-CSF Serum Concentration: 25,027.3 pg/ml
[1]; 0.05 mg/kg, 48 hours
  EPO / G-CSF Serum Concentration: 1,432.3 pg/ml
[1]; 0.05 mg/kg, 72 hours
  EPO / G-CSF Serum Concentration: 82.2 pg/mL
[2]; 0.005 mg/kg IV, 8 hours
  Female NHP Serum G-CSF / EPO Concentration: 523 pg/mL
  Male NHP Serum G-CSF / EPO Concentration: 250 pg/mL
[2]; 0.005 mg/kg IV, 24 hours
  Female NHP Serum G-CSF / EPO Concentration: 302 pg/mL
  Male NHP Serum G-CSF / EPO Concentration: 113 pg/mL
[2]; 0.005 mg/kg IV, 48 hours
  Female NHP Serum G-CSF / EPO Concentration: 11 pg/mL
  Male NHP Serum G-CSF / EPO Concentration: 29 pg/mL
[2]; 0.005 mg/kg IV, 72 hours
  Female NHP Serum G-CSF / EPO Concentration: <7.8 pg/mL
  Male NHP Serum G-CSF / EPO Concentration: <7.8 pg/mL
[2]; 0.005 mg/kg IV, 7 days
  Female NHP Serum G-CSF / EPO Concentration: <7.8 pg/mL
  Male NHP Serum G-CSF / EPO Concentration: <7.8 pg/mL
[2]; 0.005 mg/kg IV, Pre-bleed
  Female NHP Serum G-CSF / EPO Concentration: <7.8 pg/mL
  Male NHP Serum G-CSF / EPO Concentration: <7.8 pg/mL
[2]; 0.05 mg/kg IV, 8 hours
  Female NHP Serum G-CSF / EPO Concentration: 19,858 pg/ml
  Male NHP Serum G-CSF / EPO Concentration: 7,072 pg/ml
[2]; 0.05 mg/kg IV, 24 hours
  Female NHP Serum G-CSF / EPO Concentration: 18,187 pg/ml
  Male NHP Serum G-CSF / EPO Concentration: 4,913 pg/ml
[2]; 0.05 mg/kg IV, 48 hours
  Female NHP Serum G-CSF / EPO Concentration: 5,291 pg/ml
  Male NHP Serum G-CSF / EPO Concentration: 498 pg/mL
[2]; 0.05 mg/kg IV, 72 hours
  Female NHP Serum G-CSF / EPO Concentration: 744 pg/mL
  Male NHP Serum G-CSF / EPO Concentration: 60 pg/mL
[2]; 0.05 mg/kg IV, 7 days
  Female NHP Serum G-CSF / EPO Concentration: <7.8 pg/mL
  Male NHP Serum G-CSF / EPO Concentration: <7.8 pg/mL
[2]; 0.05 mg/kg IV, Pre-bleed
  Female NHP Serum G-CSF / EPO Concentration: <7.8 pg/mL
  Male NHP Serum G-CSF / EPO Concentration: <7.8 pg/mL
[2]; 0.5 mg/kg IV, 8 hours
  Female NHP Serum G-CSF / EPO Concentration: 158,771 pg/ml
  Male NHP Serum G-CSF / EPO Concentration: 119,086 pg/ml
[2]; 0.5 mg/kg IV, 24 hours
  Female NHP Serum G-CSF / EPO Concentration: 133,978 pg/ml
  Male NHP Serum G-CSF / EPO Concentration: 85,825 pg/ml
[2]; 0.5 mg/kg IV, 48 hours
  Female NHP Serum G-CSF / EPO Concentration: 45,250 pg/ml
  Male NHP Serum G-CSF / EPO Concentration: 64,793 pg/ml
[2]; 0.5 mg/kg IV, 72 hours
  Female NHP Serum G-CSF / EPO Concentration: 15,097 pg/ml
  Male NHP Serum G-CSF / EPO Concentration: 20,407 pg/ml
[2]; 0.5 mg/kg IV, 7 days
  Female NHP Serum G-CSF / EPO Concentration: <7.8 pg/mL
  Male NHP Serum G-CSF / EPO Concentration: <7.8 pg/mL
[2]; 0.5 mg/kg IV, Pre-bleed
  Female NHP Serum G-CSF / EPO Concentration: <7.8 pg/mL
  Male NHP Serum G-CSF / EPO Concentration: <7.8 pg/mL
[2]; NHP IV
  protein expression not detected beyond: ≤ 7 days
[3]; 0.005 mg/kg, 4 days, Female NHP
  IFN-alpha: 0 pg/mL
[3]; 0.005 mg/kg, 4 days, Male NHP
  IFN-alpha: 0 pg/mL
[3]; 0.005 mg/kg, Day 1 + 8 hr, Female NHP
  IFN-alpha: 0 pg/mL
[3]; 0.005 mg/kg, Day 1 + 8 hr, Male NHP
  IFN-alpha: 0 pg/mL
[3]; 0.005 mg/kg, Pre-dose, Female NHP
  IFN-alpha: 0 pg/mL
[3]; 0.005 mg/kg, Pre-dose, Male NHP
  IFN-alpha: 0 pg/mL
[3]; 0.05 mg/kg, 4 days, Female NHP
  IFN-alpha: 0 pg/mL
[3]; 0.05 mg/kg, 4 days, Male NHP
  IFN-alpha: 0 pg/mL
[3]; 0.05 mg/kg, Day 1 + 8 hr, Female NHP
  IFN-alpha: 0 pg/mL
[3]; 0.05 mg/kg, Day 1 + 8 hr, Male NHP
  IFN-alpha: 0 pg/mL
[3]; 0.05 mg/kg, Pre-dose, Female NHP
  IFN-alpha: 0 pg/mL
[3]; 0.05 mg/kg, Pre-dose, Male NHP
  IFN-alpha: 0 pg/mL
[3]; 0.5 mg/kg, 4 days, Female NHP
  IFN-alpha: 0 pg/mL
[3]; 0.5 mg/kg, 4 days, Male NHP
  IFN-alpha: 0 pg/mL
[3]; 0.5 mg/kg, Day 1 + 8 hr, Female NHP
  IFN-alpha: 217.5 pg/mL
[3]; 0.5 mg/kg, Day 1 + 8 hr, Male NHP
  IFN-alpha: 16.79 pg/mL
[3]; 0.5 mg/kg, Pre-dose, Female NHP
  IFN-alpha: 0 pg/mL
[3]; 0.5 mg/kg, Pre-dose, Male NHP
  IFN-alpha: 0 pg/mL
[4]; dose 1 μg
  human EPO in serum, Avg.: 28.7 pg/mL
  human EPO in serum, Geometric-mean: 25.4 pg/mL
[4]; dose 10 μg
  human EPO in serum, Avg.: 46.3 pg/mL
  human EPO in serum, Geometric-mean: 31.2 pg/mL
[4]; dose 50 μg
  human EPO in serum, Avg.: 101.5 pg/mL
  human EPO in serum, Geometric-mean: 85.4 pg/mL
[4]; dose 100 μg
  human EPO in serum, Avg.: 79.4 pg/mL
  human EPO in serum, Geometric-mean: 66.9 pg/mL
[4]; dose 150 μg
  human EPO in serum, Avg.: 67.7 pg/mL
  human EPO in serum, Geometric-mean: 67.1 pg/mL
[5]; mice IM, dose 1 μg
  Average Level in serum (human EPO): 2.6 pg/mL
[5]; mice IM, dose 10 μg
  Average Level in serum (human EPO): 25.9 pg/mL
[5]; mice IM, dose 25 μg
  Average Level in serum (human EPO): 18.7 pg/mL
[5]; mice IM, dose 50 μg
  Average Level in serum (human EPO): 63.5 pg/mL
[5]; mice IM, dose 100 μg
  Average Level in serum (human EPO): 96.2 pg/mL
[5]; mice SC, dose 100 μg
  Average Level in serum (human EPO): 72.0 pg/mL
[6]; Dose Vol. (μl/mouse) 1, 13 hours
  Average Protein Product, serum: 2.6 pg/mL
[6]; Dose Vol. (μl/mouse) 10, 13 hours
  Average Protein Product, serum: 25.9 pg/mL
[6]; Dose Vol. (μl/mouse) 25, 13 hours
  Average Protein Product, serum: 18.7 pg/mL
[6]; Dose Vol. (μl/mouse) 50, 13 hours
  Average Protein Product, serum: 63.5 pg/mL
[6]; Dose Vol. (μl/mouse) 100, 13 hours
  Average Protein Product, serum: 96.2 pg/mL
